Measurements published in the DeepSol protein solubility set.

assay: soluble on expression in E. coli; label from the status in PepcDB or PDB records

Q: Which “soluble on expression in E. coli” value does the source give for “MSLTDPAPEPEPPVEGQWTALTASPDTWDETKRADISYQLLLYSFADSDGDGYGDLNGVTQKLDYLNQLGVKALWLSPIHPCMSYHGYDVTDYTKVNPQLGTESDFDRLVTEAHNRGIKIYLDYVMNHTGTAHPWFTEASSSSESPYRNYYSFSEDPKTDIAAGKIAMITQEGAAGYNAAEWFQVSDETAAVKGLLKFTLDWSNAPSPILVVSTGTKADEDNPDTGTDNAKYLYYGEDICKKFYDKGNNIYELTVDFESTWGLLIRTSNASFWPSGTKYGASSSSEKLALNKDFKLTNAGNPANIMFDSQQITYFHSHFCTDWFADLNYGPVDQAGESPAYQAIADAAKGWIARGVDGLRLDAVKHIYHSETSEENPRFLKMFYEDMNAYYKQKGHTDDFYMIGEVLSEYDKVAPYYKGLPALFEFSFWYRLEWGINNSTGCYFAKDILSYQQKYANYRSDYIEATKLSNHDEDRTSSKLGKSADKCKLAAAVLLTSAGHPYIYYGEELGLYGTKDNGDEYVRSPMLWGDSYTTNYTDKTDATVSKNVKTVADQQADTHSLLNIYFSLTRLRNTYPALAEGNMTKHSVYNEGHHHHHH” here?
A: The value was “not soluble”.

Q: With “MSLTFKLRETIKINHKKVQRIMQWLGLKGKCKTQKYRSYQGEVGHIADNLLQRDFTATQPNEKWTTDITEFKCAEGKLYLSPIKDLFNNEIIAYDLARSPNFEQITRMMKQAVARLEGAKPILHSDQGWQYQMIGYQNILRENGIQQSMSRKGNCLYNSAMESFFGRLKTECYYGKRFETFEQLEKTIHEYIHYYNHERIQGKLKGLSPVNYRTQSLNEGHHHHHH” as the sequence, how does the “soluble on expression in E. coli” value read?
A: Its value is “not soluble”.

Q: Which “soluble on expression in E. coli” value does the source give for “MSLTGELHPIFNADALGASHRLHAHTHGDGTKIVGYYNKHLRLGRFTEQTYKSWHAEVDAKASSILNGSGSLLAFYGDHIIEVVDREGKKITLTVNGGIKQVLWHPLAYLDSCLVVLTGQETIEIYELNEPRYEKPTLVLNEPTSQLGISSRVIDITNIAFAPDGLSLYLFSTSEGGDVHVICPLLPSRIKADRAKWARQWNKATALYSTLTKDTPDDAKVATIEYLEFVTQLLQAIEKNGSDGELVIPEHRRRTISQGPYNIHGFPEKLYSAVGTKLTVVPLGESEAHLLLLSFDDSTNILLFPSTEVLMSWTKDLKNAYTLMLVEEFTATGTAFATCDGVAVLGIDSAQRVEIPYLQALEDCIRDCNLAALQDINFTSSICKIPGKFHSVARFNAPGNKGIILVGDHHAKIVPSTEAAKSDTETELDSQPGKEPTYTVCFPNSLEEILNTNKELQRRKHQPLPLVPPALKNEGHHHHHH” here?
A: The value was “soluble”.

Q: For “MSLTIPGVVIIGGAHGTLALARSLGVLNVPVYYLTHDSPLPGWSRFVRETIRWAGPHDDGAMAFLREMAEKPGLKGCLLVPSGDGEVQLVSQHREELSALYKIILPEWTNLQWLCEKPLLYKRAAELGVSIPRTYALTSAADIDGLDVMFPVILKPHMGGGNTSIARAKVIRADDREELKAAFVDASGEIGPDNVVVQELIPGGGESQFSYAALWLNGEPIAEFTARRARQYPVDFGYTSTRVEVVDNRQAIEAARKILKSAGHSGLVEVEFKLDGRDGALKLLDVNPRPWSWFGLCSAAGINLGGLLWRVANEGHHHHHH”, which “soluble on expression in E. coli” value is on record?
A: The value was “soluble”.

Q: Which “soluble on expression in E. coli” value does the source give for “MSLTISTQCSKCEKIYDDNKRKICSGKCGHSICESCFDRKSSDICSICNQIDSFGVKCINRSAMEMVEMKKNAFSFSDIWIFKFDPKEHFNGPCSKCNDYSTMLRVCTNSAVQAGLLVKTGENSFDLTPHTTDELLETIILRIKSIGICADCVINNGLKEDVVMMKNIKRLYDIAKALNYLSMFSFSMKQIEREIEEFKNKKNQLRFYNMYYHFVKETYPEIMKWLKNDLVRISAPPCWQVLLKIVSIMTQAAQSLFLKSAERELQISKEKLRDSKGNSEWQKTVDKLENFRDFLEINHVDAEIQPIDMWNFFVLCTTEELDKVTAIINRNLKIQGKSSRETLKEVYYLTRDVRKTLPFQIPERFAGFIDRFIRVLVGENLDEEQALEIQSTT” here?
A: The value was “not soluble”.

Q: Which “soluble on expression in E. coli” value does the source give for “MSLTKDLLSELIQKHRSFNLSYSAYKQLYEGDHAILQQKQKEQYKPDNRLVVNFAKYIVDTFNGYFIGVPVQTSHENKQVSNYLELLDGYNDQDDNNAELSKICSIYGHGYELVFNDENAEVGITYLTPLEGFIVYDDSIRQKPLFAVRYFYNKDGVLEGSYSDASKITYFKDGEKDLEIGESDPHPFDGVPMIEYVENEERQSLLASVVTLINAFNKAISEKANDVEYFADAYLKILGAELDDETLKSLRDTRIINLKDTDAQQLTVEFLQKPDADATQEHLLDRLENLIFRTAMVANISDESFGTASGIALRYRLQAMDNLAKTKERKFMSGMNRRYKLIASYPTSKIGPKDWIGIKYKFTRNLPANLLEESQIAGNLAGIVSEETQVGVLSIVENPQKEIEKKNSDRPTLISRKAGGLNGQDTTTVLEGHHHHHH” here?
A: Its value is “not soluble”.

Q: For “MSLTKQVYIIHGYRASSTNHWFPWLKKRLLADGVQADILNMPNPLQPRLEDWLDTLSLYQHTLHENTYLVAHSLGCPAILRFLEHLQLRKQLGGIILVSGFAKSLPTLQMLDEFTQGSFDHQKIIESAKHRAVIASKDDQIVPFSFSKDLAQQIDAALYEVQHGGHFLEDEGFTSLPIVYDVLTSYFSKETREGGSHHHHHH”, which “soluble on expression in E. coli” value is on record?
A: Its value is “soluble”.

Q: For “MSLTLFGKTSRRPGLPRQAAGLALAACALASLPAQAKESDGDRLQGIVEPIVARQPLKLGVTVVHLLDNFYKGIAYGIVDEARRSNVEVVQVAVAGAYGNVQQQFAQLQSFKTLGVDYAVLSPAAYSGYDPVVADLARSGIKTISAGIPVNSDKIAFGVLQDDTLIGKVLGKALCDDGAQGKQVIVVPGAAGLEWPRLRYEGFKEVASACGAKLTPAAFRGEMSLADGMAQTQDLLMRTPDAEYVFTPVTFLGIGAVRAARQANRPVKVLTSAMVKENEAMIREGRLLAVASEPGVIMGRLIVQYAIREHEGLPMPPLDKPTRSVPYPHFNVPITVVDKSNEGHHHHHH”, which “soluble on expression in E. coli” value is on record?
A: The value was “soluble”.

Q: With “MSLTLTEVAEFVGVSAMTVSRALRMPEKVNPELRDRIDAAVSQLGYVPNLQARNLASVHSDLILAVVPTFSSPGFLPVSEALQKVLTERGYTMMFMESGHDGQSEQKTFEKMLAYNPAAIIQFNIDTIESCTQLLANVDVPILEIGALNTHPVGMCIGVDYGKAVKQIVTHLADASLKNIALLCTPANNTMFRQLLSGWNTAMLALNRSPHRVVTTHLPSTIATGVNIFKDMMITWGDLDALICTSDEMACGCMMACHSAGIKVPNTVAIASLGGGVLSTVCSPALTTVEFPWHDIGVKAGKALLELLNDKPGEKFIEIPSVLKVRASTAEGHHHHHH” as the sequence, how does the “soluble on expression in E. coli” value read?
A: The value was “soluble”.

Q: Which “soluble on expression in E. coli” value does the source give for “MSLTLYKPNETDFTHNGIGALDKNIYNATVEEELNGLFLFSFSYPLFAPHGLEIEGMSIIKVPTPDGEQLFRVAAPKASMGEVTAQCYHIFYDLTENLIEDIFAETTNGNGAMNRMSAGCQYKHPFQFYSDVPKIASARIVRKNPVEALLDSSQDNSFVNRWGGELKRDNFDVKMLQNRGMDRGVVIRHKKDLLGYEGNVDWKSPITRIMPQGFDGLFLPEKYVDSPLINKYPHPKIKVVEFKHIKAAIGENADDEDAVPLEEAYRLLRQAAKGMFTIQKADQPKATYNVKFQELSQTEEYKDYKHLQSVYMADTVTVEHQEDGIDIKAKVIAYKYDPIKKEYLDVTIGNFKESFTDVSGRVDLVQEELSNMPSSILDAAKVNATSLINSGFGGHVRVYPNRILIMDTKDEKSAKKVWQWNLNGLGYSSTGVNGPYGTAITSDGRIVADFITAGTLSGNFVRGGEITGSTEGHHHHHH” here?
A: The value was “soluble”.

Q: With “MSLTNDVDAIQPIGLRRIDHIAQTMKFDEMQDWLLYYISTFEMDKSSIVNVNDPSGIILSQAIESPEGEVRLNLNASEDLNTFAGLFVEDKFGAGVQHIAFASDDIFESANLLRINGFKSLAIPSGYYEETKNKFNLNDTFIAQLKKQNILYDQDGNSEYFQIYSKNLFDGFFFEIVQRKNGYSGYGARNASVRLSSQTILQQAEGHHHHHH” as the sequence, how does the “soluble on expression in E. coli” value read?
A: Its value is “not soluble”.

Q: For “MSLTNEKSTEEIALGIRRRVFFHTMKNNGGYLSQACSAAESLALLYNELLTLGEPTLPKVPLPFRGVPSAHNPDAFTGAGYHGPVGPNFDRFFISPAHYALVIYSVLIEMGRMDEHALDHFNKDGGSVEMIGAEHSPGMEVTTGSLAQGLSMASGVAWARLRKKEPGKVWVYMSDGEFQEGQTWECLAAMSYHKIDNIRVIVDVNRQQCDGAMSSVLDLGDLASRVASFGVTCRSVDGHDLGALRAAAESAEAGKPLVILANTSPYQGMDFLKKRFPRLHYVRFKSAEERQEMQTALAIELGIDLTAMERAEGHHHHHH”, which “soluble on expression in E. coli” value is on record?
A: Its value is “not soluble”.

Q: For “MSLTNLLQKIGDAVTVVNFSLYEGFIFDMDGTLLDTMPAHLAAWEATAKHFDFPFDAQWLYGLGGMPSAKITTHINKKLGLALDPDRVAAYKMDWFASMGLQAEVIPATYELLCQWQGKKKMAIGTGSQRDSALRLLSNAQVLDKFDAVVTASDVQQHKPHPETFLMACEQLGLTPKQCLVFEDTQLGLQAAHAGGMDCMLVTEQGLVFYPFAHEGHHHHHH”, which “soluble on expression in E. coli” value is on record?
A: Its value is “soluble”.

Q: With “MSLTNPAPIEAPLPKGVTDFLPEKADKIGYIEGKIRRVFELWGFRRIITPLLEFQDVMAAGLGEDLKERTFRFDDRQTGKLLAIPSDITPQVARIVATRMRGCPLPHRLYYIGRVLRHVELQSGRSRETFQAGVELIGLDSPEADAEMVAMAVEILKGLGFEEFKVDLGHTGFIRGVMAASGLGGDARRRLQEAVGKKDSSAVRAILETEPVADRIKEELAALPRLFGGREVLAEAARVATSDSSRRALDNIAQVLDILDIHGVSDHLTLDLGEIRGLDYHSGLTFEGFVTGIGEAVCSGGRYDNLTQRYGYPAPATGFAFNILALLNALEKRPDVEASKTRDLLIFNLKDDRREALEIAQHLRALGYSTARDIIHRDFNDSLDYARRMNILRMMVIGGDYCAADEAYVVRVADKRGTAVKKADLMRNDFSLNTEGHHHHHH” as the sequence, how does the “soluble on expression in E. coli” value read?
A: The value was “soluble”.

Q: For “MSLTPLTGQDTPALDECVVDAVDVHAFEVPTDGPEGREQDGTLEWDATTLVLVRVHAGGRTGLGYTYGDVSVASFAHSVLGPVVKGRPVSSPPALWELMGARMRNAGRPGVGAMALSAVDVALWDLKARLLGLPLVHLLPAHHDRVPVYGSGGFTNYPLDRLTDQLAGWVRQGIGRVKLKTSRDPEADPRRLTAVRRAVGDGPEVFTDANGALGRKAALYWAHRFHDEWDVRWFEEPVASADLEGLRMLRERGPARLEITAGEYAFTAQDFANLTEGPAVDCLQADVTRCGGVTGVLEVAGLSAARHLDLSAHCAPAVSAHAFCAVRRLRHLEYFHDHVRVERLLFDGVPSPEGGALRPDTSRPGLGLEVRWADAEPYRVRGVRPPREGHHHHHH”, which “soluble on expression in E. coli” value is on record?
A: Its value is “soluble”.

Q: For “MSLTQAATRPTNDAGQDGGNNSDILVVARQQVLQRGEGLNQDQVLAVLQLPDDRLEELLALAHEVRMRWCGPEVEVEGIISLKTGGCPEDCHFCSQSGLFASPVRSAWLDIPSLVEAAKQTAKSGATEFCIVAAVRGPDERLMAQVAAGIEAIRNEVEINIACSLGMLTAEQVDQLAARGVHRYNHNLETARSFFANVVTTHTWEERWQTLSMVRDAGMEVCCGGILGMGETLQQRAEFAAELAELGPDEVPLNFLNPRPGTPFADLEVMPVGDALKAVAAFRLALPRTMLRFAGGREITLGDLGAKRGILGGINAVIVGNYLTTLGRPAEADLELLDELQMPLKALNASLEGHHHHHH”, which “soluble on expression in E. coli” value is on record?
A: Its value is “soluble”.
